Source: PMC6930887
“And” between values parts separate entries of the source, which are not always exact repeats. Equal values may be shown once.

Molecular target: T1, endogenously expressed σ1R of mouse brain cortex (mouse (endogenous in brain cortex)), O55242
T1 chain: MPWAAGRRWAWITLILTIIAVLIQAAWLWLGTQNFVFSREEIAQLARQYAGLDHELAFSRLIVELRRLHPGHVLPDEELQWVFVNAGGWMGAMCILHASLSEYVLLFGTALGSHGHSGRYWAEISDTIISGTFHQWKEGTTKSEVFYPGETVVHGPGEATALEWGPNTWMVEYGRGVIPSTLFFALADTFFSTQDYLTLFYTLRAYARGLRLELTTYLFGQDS
Test: SDS-PAGE western blot without heat denaturation; mouse brain cortex homogenised in lysis buffer, samples kept on ice, same protocol as for the transfected cells
Settings: remark: other sources report otherwise

stoichiometry N: 2 and 4
B1: endogenously expressed σ1R of mouse brain cortex, O55242 1-223 (receptor)
chain: MPWAAGRRWAWITLILTIIAVLIQAAWLWLGTQNFVFSREEIAQLARQYAGLDHELAFSRLIVELRRLHPGHVLPDEELQWVFVNAGGWMGAMCILHASLSEYVLLFGTALGSHGHSGRYWAEISDTIISGTFHQWKEGTTKSEVFYPGETVVHGPGEATALEWGPNTWMVEYGRGVIPSTLFFALADTFFSTQDYLTLFYTLRAYARGLRLELTTYLFGQDS
